Assay results from patent publication US20010010923A1, “MODIFIED CARBOXYPEPTIDASE” (priority 1997, published 2001).
Numbering of substitutions follows the chain as printed. Names may count otherwise.

B1: L178S + M398L: carboxypeptidase Y mutant L178S + M398L (S1 and S1' subsites) (protein, UniProt P00729 112-532, looked up, variant L178S M398L)
Carboxypeptidase Y: KIKDPKILGIDPNVTQYTGYLDVEDEDKHFFFWTFESRNDPAKDPVILWLNGGPGCSSLTGLFFELGPSSIGPDLKPIGNPYSWNSNATVIFLDQPVNVGFSYSGSSGVSNTVAAGKDVYNFLELFFDQFPEYVNKGQDFHIAGESYAGHYIPVFASEILSHKDRNFNLTSVLIGNGSTDPLTQYNYYEPMACGEGGEPSVLPSEECSAMEDSLERCLGLIESCYDSQSVWSCVPATIYCNNAQLAPYQRTGRNVYDIRKDCEGGNLCYPTLQDIDDYLNQDYVKEAVGAEVDHYESCNFDINRNFLFAGDWMKPYHTAVTDLLNQDLPILVYAGDKDFICNWLGNKAWTDVLPWKYDEEFASQKVRNWTASITDEVAGEVKSYKHFTYLRVFNGGHLVPFDVPENALSMVNEWIHGGFSL
B2: L178D: carboxypeptidase Y S1 mutant, substitution L178D (protein, UniProt P00729 112-532, looked up, variant L178D)
Carboxypeptidase Y: B1 Carboxypeptidase Y with S178D, L398M
B3: N241E: carboxypeptidase Y S1 mutant, substitution N241E (protein, UniProt P00729 112-532, looked up, variant N241E)
Carboxypeptidase Y: B1 Carboxypeptidase Y with S178L, N241E, L398M
B4: L245E: carboxypeptidase Y S1 mutant, substitution L245E (protein, UniProt P00729 112-532, looked up, variant L245E)
Carboxypeptidase Y: B1 Carboxypeptidase Y with S178L, L245E, L398M
B5: W312L: carboxypeptidase Y S1 mutant, substitution W312L (protein, UniProt P00729 112-532, looked up, variant W312L)
Carboxypeptidase Y: B1 Carboxypeptidase Y with S178L, W312L, L398M
B6: W312N: carboxypeptidase Y S1 mutant, substitution W312N (protein, UniProt P00729 112-532, looked up, variant W312N)
Carboxypeptidase Y: B1 Carboxypeptidase Y with S178L, W312N, L398M
B7: W312D: carboxypeptidase Y S1 mutant, substitution W312D (protein, UniProt P00729 112-532, looked up, variant W312D)
Carboxypeptidase Y: B1 Carboxypeptidase Y with S178L, W312D, L398M
B8: L178S + W312N: carboxypeptidase Y combination mutant L178S + W312N (protein, UniProt P00729 112-532, looked up, variant L178S W312N)
Carboxypeptidase Y: B1 Carboxypeptidase Y with W312N, L398M
B9: L178D + W312N: carboxypeptidase Y combination mutant L178D + W312N (protein, UniProt P00729 112-532, looked up, variant L178D W312N)
Carboxypeptidase Y: B1 Carboxypeptidase Y with S178D, W312N, L398M
B10: L178D + W312D: carboxypeptidase Y combination mutant L178D + W312D (protein, UniProt P00729 112-532, looked up, variant L178D W312D)
Carboxypeptidase Y: B1 Carboxypeptidase Y with S178D, W312D, L398M
B11: L245E + W312N: carboxypeptidase Y combination mutant L245E + W312N (protein, UniProt P00729 112-532, looked up, variant L245E W312N)
Carboxypeptidase Y: B1 Carboxypeptidase Y with S178L, L245E, W312N, L398M
B12: L178A: carboxypeptidase Y S1 mutant, substitution L178A (protein, UniProt P00729 112-532, looked up, variant L178A)
Carboxypeptidase Y: B1 Carboxypeptidase Y with S178A, L398M
B13: N241D + W312N: carboxypeptidase Y mutant N241D + W312N (protein, UniProt P00729 112-532, looked up, variant N241D W312N)
Carboxypeptidase Y: B1 Carboxypeptidase Y with S178L, N241D, W312N, L398M
B14: N241D + W312A: carboxypeptidase Y mutant N241D + W312A (protein, UniProt P00729 112-532, looked up, variant N241D W312A)
Carboxypeptidase Y: B1 Carboxypeptidase Y with S178L, N241D, W312A, L398M
B15: N241D + W312L: carboxypeptidase Y mutant N241D + W312L (protein, UniProt P00729 112-532, looked up, variant N241D W312L)
Carboxypeptidase Y: B1 Carboxypeptidase Y with S178L, N241D, W312L, L398M
B16: N241D + W312F: carboxypeptidase Y mutant N241D + W312F (protein, UniProt P00729 112-532, looked up, variant N241D W312F)
Carboxypeptidase Y: B1 Carboxypeptidase Y with S178L, N241D, W312F, L398M
B17: N241D: carboxypeptidase Y mutant, substitution N241D (protein, UniProt P00729 112-532, looked up, variant N241D)
Carboxypeptidase Y: B1 Carboxypeptidase Y with S178L, N241D, L398M

Experiments:
Format in all cases: biochemical
[1] = Transamidation of FA-Arg-Ala-OH, Table 6; conditions: H-Leu-NH2 375 mM, pH 7.5, [E] 0.1 mg/mL
[2] = Transamidation of Bz-G-A-R-A-R-A-OH, Table 6; conditions: [S] = 2 mM; H-Leu-NH2 375 mM; pH 7.5; [E] 0.1 mg/mL
[3] = Transpeptidation of Bz-G-A-R-A-R-X-OH at pH 6.5 at 50% substrate consumption, Table 5; design: key to fa: fa = aminolysis product / sum of all products formed; conditions: for Pmax (peak product yield) / fa: 750 mM H-Leu-NH2; for fa / t: 50% substrate consumption; for t: 750 mM H-Leu-NH2, 2 mM substrate, [E] 0.1 mg/mL
Method: Transamidation reactions were carried out generally as described in PCT Application WO 95/20039. In general, the method included dissolving the nucleophile (H-Leu-NH2, unless otherwise indicated) in 50 mM HEPES, […], 5 μl of peptide substrate (8 mM Bz-G-A-R-A-R-A-OH, unless otherwise indicated, in methanol) was added to 190 μl nucleophile solution followed by 5 μl enzyme, resulting in a substrate concentration of 0.2 mM.
(§1) During the reaction, 20 μl aliquots were removed from the reaction mixture and added to 50 μl 1% trifluoroacetic acid to quench the reaction. The reactant composition was determined by HPLC using a Waters HPLC equipped with a C-18 Waters Novapac 4μ reverse phase column and various gradients of acetonitrile in 0.1% trifluoroacetic acid. The separation was monitored at 254 nm allowing the direct quantification of the products from the integrated peak areas. The composition of the reaction mixture was determined at least twvice during the reaction, the first when 20-50% (preferably 35%) of the substrate had been consumed in the reaction and the second time when 50-90% (preferably 80%) of the peptide substrate had been consumed.
The fraction of aminolysis (fa) was expressed as the ratio between the formed aminolysis product and the sum of all products formed. Unconsumed substrate was disregarded in the calculations. […]

[4] = Transpeptidation of Bz-G-A-R-A-R-X-OH at pH 7.5 at 50% substrate consumption, Table 4; design: key to fa: fraction: aminolysis product / sum of all products formed; conditions: for Pmax (peak product yield) / fa: 375 mM H-Leu-NH2; for fa / t: 50% substrate consumption; for t: 375 mM H-Leu-NH2, 2 mM substrate, [E] 0.1 mg/mL
Method: (§2) Transamidation reactions were carried out generally as described in PCT Application WO 95/20039. In general, the method included dissolving the nucleophile (H-Leu-NH2, unless otherwise indicated) in 50 mM HEPES, 5 mM EDTA and adjusting the pH to 7.5, 5 μl of peptide substrate (8 mM Bz-G-A-R-A-R-A-OH, unless otherwise indicated, in methanol) was added to 190 μl nucleophile solution followed by 5 μl enzyme, resulting in a substrate concentration of 0.2 mM.
as §1
(§3) The fraction of aminolysis (fa) was expressed as the ratio between the formed aminolysis product and the sum of all products formed. Unconsumed substrate was disregarded in the calculations.
Site specific mutagenesis was performed as described for Example 1 to generate the specific mutants described below. Transamidation reactions were performed as described for Examples 1.

[5] = Transpeptidation of Bz-G-A-R-A-R-A-OH (arginine at P1) with H-Leu-NH2, Table 1; conditions: 2mM substrate, pH 7.5, [E] 0.1 mg/mL
Method: The mutant carboxypeptidase enzvmes used in these studies were produced by site-directed mutagenesis, essentially following the procedures described in published PCT Patent Application No. WO 95/20039. In general, oligonucleotides synthesized to encode the amino acid substitution were used to produce the mutant enzymes.
as §2, with “resulting in a substrate concentration of 0.2 mM.” left out
as §1
The reaction products were collected and identified by amino acid analysis after acid hydrolysis using a Pharmacia Alpha Plus analyzer. Further identification was obtained by co-chromatography of authentic standard compounds.
as §3

[6] = Transamidation of Bz-G-A-R-A-R-A-OH, Table 6; conditions: H-Leu-NH2 375 mM, pH 7.5, [E] 0.1 mg/mL
Method: as §2, with “resulting in a substrate concentration of 0.2 mM.” left out
as §1, §3
Site specific mutagenesis was performed as described for Example 1 to generate the specific mutants described below. Transamidation reactions were performed as described in the previous examples.

Row | Molecule | Pmax ([1]; [S] = 2 mM) | fa ([1]; [S] = 2 mM) | fa [2] | fa (fraction of aminolysis) ([5]; [N] 375 mM H-Leu-NH2) | Pmax ([6]; [S] = 2 mM) | further results
1 | B1 | 0.90 | .99 | 0.91 |  |  | Pmax (peak product yield) ([3]; leaving group A): 0.48; fa ([3]; leaving group A): 0.92; t ([3]; leaving group A): 53 min; Pmax (peak product yield) ([3]; leaving group L): 0.54; fa ([3]; leaving group L): 0.54; t ([3]; leaving group L): 19 min; Pmax (peak product yield) ([4]; leaving group A): >0.48; fa ([4]; leaving group A): 0.77; t ([4]; leaving group A): 41 min; fa ([4]; leaving group I): 0.54; t ([4]; leaving group I): 33 min; Pmax (peak product yield) ([4]; leaving group L): >0.39; fa ([4]; leaving group L): 0.39; t ([4]; leaving group L): 1 min; fa ([4]; leaving group M): 0.17; t ([4]; leaving group M): 17 min; fa ([4]; leaving group V): 0.45; t ([4]; leaving group V): 30 min
2 | B2 |  |  |  | 0.81 |  | 
3 | B3 |  | 0.92 | 0.47 |  | 0.25 | Pmax ([1]; [S] = 0.2 mM): 0.49; fa ([1]; [S] = 0.2 mM): 0.70; fa (fraction of aminolysis) ([5]; [N] 50 mM H-Leu-NH2): 0.27; Pmax ([6]; [S] = 0.2 mM): 0.25; fa ([6]; [S] = 0.2 mM): 0.43
4 | B4 | 0.73 | 0.83 | 0.20 | 0.18 | 0.09 | fa (fraction of aminolysis) ([5]; [N] 50 mM H-Leu-NH2): 0.07
5 | B5 |  |  |  | 0.07 |  | 
6 | B6 |  |  |  | 0.23 |  | 
7 | B7 | 0.67 | 0.77 | 0.16 | 0.15 | 0.08 | 
8 | B8 |  |  |  | 0.63 |  | 
9 | B9 |  |  |  | 0.71 |  | 
10 | B10 |  |  |  | 0.71 |  | 
11 | B11 |  |  |  | 0.20 |  | 
12 | B12 |  |  |  | 0.45 |  | 
13 | B13 | 0.58 | 0.74 | 0.17 |  | 0.13 | 
14 | B14 | 0.72 | 0.80 | 0.28 |  | 0.20 | 
15 | B15 | 0.37 | 0.50 | 0.05 |  | 0.05 | 
16 | B16 | 0.58 | 0.70 | 0.24 |  | 0.17 | 
17 | B17 | 0.56 | 0.85 | 0.15 |  | 0.09 | 
